According to patent US20140322196A1 (priority 2011, published 2014):

System: A/Parma/24/09 (Brisbane-like) (oseltamivir-resistant) H1N1
Format: cell-based, Influenza A virus
Settings: A/Parma/24/09 H1N1

B1: bLf: Lactoferrin from bovine milk, purchased from Morinaga Milk Industries, deprived of endotoxin (protein, UniProt P24627 20-708, looked up)
Lactotransferrin: APRKNVRWCTISQPEWFKCRRWQWRMKKLGAPSITCVRRAFALECIRAIAEKKADAVTLDGGMVFEAGRDPYKLRPVAAEIYGTKESPQTHYYAVAVVKKGSNFQLDQLQGRKSCHTGLGRSAGWIIPMGILRPYLSWTESLEPLQGAVAKFFSASCVPCIDRQAYPNLCQLCKGEGENQCACSSREPYFGYSGAFKCLQDGAGDVAFVKETTVFENLPEKADRDQYELLCLNNSRAPVDAFKECHLAQVPSHAVVARSVDGKEDLIWKLLSKAQEKFGKNKSRSFQLFGSPPGQRDLLFKDSALGFLRIPSKVDSALYLGSRYLTTLKNLRETAEEVKARYTRVVWCAVGPEEQKKCQQWSQQSGQNVTCATASTTDDCIVLVLKGEADALNLDGGYIYTAGKCGLVPVLAENRKSSKHSSLDCVLRPTEGYLAVAVVKKANEGLTWNSLKDKKSCHTAVDRTAGWNIPMGLIVNQTGSCAFDEFFSQSCAPGADPKSRLCALCAGDDQGLDKCVPNSKEKYYGYTGAFRCLAEDVGDVAFVKNDTVWENTNGESTADWAKNLNREDFRLLCLDGTRKPVTEAQSCHLAVAPNHAVVSRSDRAAHVKQVLLHQQALFGKNGKNCPDKFCLFKSETKNLLFNDNTECLAKLGGRPTYEEYLGTEYVTAIANLKKCSTSPLLEACAFLTR
For B1, the HI titre was 6 nM.
